The target of this test is T1, Flag-3C-Mcm10-V5 (S. cerevisiae, UniProt P32354 1-571).
T1 sequence: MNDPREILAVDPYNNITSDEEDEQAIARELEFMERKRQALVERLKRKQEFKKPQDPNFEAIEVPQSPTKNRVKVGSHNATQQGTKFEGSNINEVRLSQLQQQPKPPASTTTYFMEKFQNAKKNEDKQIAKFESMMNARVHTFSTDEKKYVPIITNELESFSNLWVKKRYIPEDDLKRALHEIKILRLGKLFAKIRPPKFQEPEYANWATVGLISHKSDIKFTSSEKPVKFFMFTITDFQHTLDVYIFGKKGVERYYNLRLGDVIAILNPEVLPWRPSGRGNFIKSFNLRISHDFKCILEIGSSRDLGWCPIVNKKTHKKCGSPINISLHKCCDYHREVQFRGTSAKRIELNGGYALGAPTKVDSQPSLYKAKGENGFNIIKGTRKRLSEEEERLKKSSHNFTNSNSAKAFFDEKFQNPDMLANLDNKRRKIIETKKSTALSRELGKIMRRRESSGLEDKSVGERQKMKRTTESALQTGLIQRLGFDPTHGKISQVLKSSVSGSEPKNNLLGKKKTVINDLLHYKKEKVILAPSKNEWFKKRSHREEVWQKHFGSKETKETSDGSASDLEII
In words: co-IP.

B1: Mcm2 1–483 (C-terminally 6xHis-tagged) (domain or fragment)
chain: MSDNRRRRREEDDSDSENELPPSSPQQHFRGGMNPVSSPIGSPDMINPEGDDNEVDDVPDIDEVEEQMNEVDLMDDNMYEDYAADHNRDRYDPDQVDDREQQELSLSERRRIDAQLNERDRLLRNVAYIDDEDEEQEGAAQLDEMGLPVQRRRRRRQYEDLENSDDDLLSDMDIDPLREELTLESLSNVKANSYSEWITQPNVSRTIARELKSFLLEYTDETGRSVYGARIRTLGEMNSESLEVNYRHLAESKAILALFLAKCPEEMLKIFDLVAMEATELHYPDYARIHSEIHVRISDFPTIYSLRELRESNLSSLVRVTGVVTRRTGVFPQLKYVKFNCLKCGSILGPFFQDSNEEIRISFCTNCKSKGPFRVNGEKTVYRNYQRVTLQEAPGTVPPGRLPRHREVILLADLVDVSKPGEEVEVTGIYKNNYDGNLNAKNGFPVFATIIEANSIKRREGNTANEGEEGLDVFSWTEEEERE
In the case of B1, the binding result is given as “binds”.

B2: MBP-Mcm2 196–299 (domain or fragment)
chain: EWITQPNVSRTIARELKSFLLEYTDETGRSVYGARIRTLGEMNSESLEVNYRHLAESKAILALFLAKCPEEMLKIFDLVAMEATELHYPDYARIHSEIHVRISD
In the case of B2, the binding result was “binds”.

The values above are taken from publication PMC5358725 (Genes & Development, 2017).
